US20030082682A1 (published 2003)

T1: RXR interacting protein, RB204 (human, UniProt O75064 240-1496, limits assumed)
T1 construct: Prey clone from a two-hybrid cDNA library (human bone and cartilage cells) in a vector derived from pJG4-5
T1 sequence: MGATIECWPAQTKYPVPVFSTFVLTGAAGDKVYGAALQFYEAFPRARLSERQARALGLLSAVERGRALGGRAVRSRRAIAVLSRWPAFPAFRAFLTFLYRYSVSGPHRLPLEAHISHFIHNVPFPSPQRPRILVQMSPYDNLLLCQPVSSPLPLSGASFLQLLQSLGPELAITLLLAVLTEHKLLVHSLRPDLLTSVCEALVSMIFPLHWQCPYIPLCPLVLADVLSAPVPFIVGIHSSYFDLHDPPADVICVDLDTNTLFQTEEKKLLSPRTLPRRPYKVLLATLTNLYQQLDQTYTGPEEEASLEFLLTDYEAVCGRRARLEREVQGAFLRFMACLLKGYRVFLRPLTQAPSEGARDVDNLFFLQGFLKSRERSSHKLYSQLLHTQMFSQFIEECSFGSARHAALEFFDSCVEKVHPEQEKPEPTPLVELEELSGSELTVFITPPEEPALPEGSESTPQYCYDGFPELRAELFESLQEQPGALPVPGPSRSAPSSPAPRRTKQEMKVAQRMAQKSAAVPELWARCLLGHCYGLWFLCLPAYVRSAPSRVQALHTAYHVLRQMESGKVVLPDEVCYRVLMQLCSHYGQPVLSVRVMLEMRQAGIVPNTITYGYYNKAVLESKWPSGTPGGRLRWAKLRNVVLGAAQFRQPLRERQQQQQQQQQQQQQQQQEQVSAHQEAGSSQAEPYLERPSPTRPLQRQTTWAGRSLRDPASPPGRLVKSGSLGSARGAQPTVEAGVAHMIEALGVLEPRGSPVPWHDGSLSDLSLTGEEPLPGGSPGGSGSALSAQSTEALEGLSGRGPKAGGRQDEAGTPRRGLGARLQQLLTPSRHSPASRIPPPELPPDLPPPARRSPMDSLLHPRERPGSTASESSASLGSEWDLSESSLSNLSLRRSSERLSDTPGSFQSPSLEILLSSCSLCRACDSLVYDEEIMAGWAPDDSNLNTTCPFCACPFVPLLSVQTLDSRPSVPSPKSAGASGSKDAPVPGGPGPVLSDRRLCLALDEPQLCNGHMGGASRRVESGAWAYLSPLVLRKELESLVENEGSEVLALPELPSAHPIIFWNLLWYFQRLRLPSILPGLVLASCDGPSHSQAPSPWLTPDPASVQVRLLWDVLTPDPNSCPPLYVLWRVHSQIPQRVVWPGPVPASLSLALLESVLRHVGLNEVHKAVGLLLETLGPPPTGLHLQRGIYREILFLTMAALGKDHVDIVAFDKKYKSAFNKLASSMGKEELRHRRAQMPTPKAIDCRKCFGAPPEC

B1: PPARa (receptor, UniProt Q07869 167-468, looked up)
chain: SHNAIRFGRMPRSEKAKLKAEILTCEHDIEDSETADLKSLAKRIYEAYLKNFNMNKVKARVILSGKASNNPPFVIHDMETLCMAEKTLVAKLVANGIQNKEAEVRIFHCCQCTSVETVTELTEFAKAIPGFANLDLNDQVTLLKYGVYEAIFAMLSSVMNKDGMLVAYGNGFITREFLKSLRKPFCDIMEPKFDFAMKFNALELDDSDISLFVAAIICCGDRPGLLNVGHIEKMQEGIVHVLRLHLQSNHPDDIFLFPKLLQKMADLRQLVTEHAQLVQIIKKTESDAALHPLLQEIYRDMY
notes: Member of the panel of nuclear hormone receptors in the directed two-hybrid analysis; the construct is not described
B2: PPARd (receptor, UniProt Q03181 139-441, looked up)
chain: SHNAIRFGRMPEAEKRKLVAGLTANEGSQYNPQVADLKAFSKHIYNAYLKNFNMTKKKARSILTGKASHTAPFVIHDIETLWQAEKGLVWKQLVNGLPPYKEISVHVFYRCQCTTVETVRELTEFAKSIPSFSSLFLNDQVTLLKYGVHEAIFAMLASIVNKDGLLVANGSGFVTREFLRSLRKPFSDIIEPKFEFAVKFNALELDDSDLALFIAAIILCGDRPGLMNVPRVEAIQDTILRALEFHLQANHPDAQYLFPKLLQKMADLRQLVTEHAQMMQRIKKTETETSLHPLLQEIYKDMY
notes: as for B1
B3: HNF4g (receptor, UniProt Q14541 99-408, looked up)
chain: SNIPSINTLAQAEVRSRQISVSSPGSSTDINVKKIASIGDVCESMKQQLLVLVEWAKYIPAFCELPLDDQVALLRAHAGEHLLLGATKRSMMYKDILLLGNNYVIHRNSCEVEISRVANRVLDELVRPFQEIQIDDNEYACLKAIVFFDPDAKGLSDPVKIKNMRFQVQIGLEDYINDRQYDSRGRFGELLLLLPTLQSITWQMIEQIQFVKLFGMVKIDNLLQEMLLGGASNDGSHLHHPMHPHLSQDPLTGQTILLGPMSTLVHADQISTPETPLPSPPQGSGQEQYKIAANQASVISHQHLSKQKQL
notes: as for B1
B4: ERb (receptor, UniProt Q92731 248-530, looked up)
chain: SGGHAPRVRELLLDALSPEQLVLTLLEAEPPHVLISRPSAPFTEASMMMSLTKLADKELVHMISWAKKIPGFVELSLFDQVRLLESCWMEVLMMGLMWRSIDHPGKLIFAPDLVLDRDEGKCVEGILEIFDMLLATTSRFRELKLQHKEYLCVKAMILLNSSMYPLVTATQDADSSRKLAHLLNAVTDALVWVIAKSGISSQQQSMRLANLLMLLSHVRHASNKGMEHLLNMKCKNVVPVYDLLLEMLNAHVLRGCKSSITGSECSPAEDSKSKEGSQNPQSQ
notes: as for B1

Target: T1, RXR interacting protein, RB204
Assay: two-hybrid, directed analysis against a panel of nuclear hormone receptors
Experimental: Screening was performed as per standard protocols (Golemis et al., Current protocols in molecular biology, 20.0.1,1999). […] RB204 interacts weakly with ERa in the presence of estradiol. Sequence analysis identified an LXXLL nuclear hormone interaction motif within the RB204 open reading frame.

Binding result, no binding:
B1, B2, B3, B4
